From patent publication US8871205B2, “Methods and compositions for the treatment of immune disorders” (The University of North Carolina at Chapel Hill, priority 2009, dated 2014)

Tested on: WT or Plxna4−/− peritoneal macrophages
Test: TNF-α and IL-6 production (RT-PCR, ELISA) in peritoneal macrophages stimulated with Sema3A-Fc or Sema6A-Fc in the absence or presence of LPS
Type: cell-based, mouse
Conditions: semaphorin alone, absence of LPS; macrophages
Description: Messenger RNA (FIG. 7A) or protein (FIG. 7B) levels of TNF-α and IL-6 were measured by RT-PCR and ELISA, respectively. The IgG Fc fragment (100 μg/ml) was used as a negative control. WT and Plxna4^−/− mice (n=7˜9 per group) were pretreated with either Sema3A-Fc or IgG Fc control proteins at a dosage of 25 μg per kg body weight 1 h prior to CLP procedure (FIG. 7C). Survival rate was monitored for 5 days. τP<0.05 compared with WT mice pretreated with Sema3A-Fc. WT mice (n=4 per group) were pretreated with either Sema3A-Fc or IgG Fc control proteins, followed by CLP surgery (FIG. 7D). Inflammatory cytokines in peritoneal lavage collected 4 h after CLP were determined by ELISA. * P<0.05 compared to peritoneal lavage from WT mice pretreated with Sema3A-Fc (FIG. 7E). […] Inflammatory cytokines in peritoneal lavage collected 4 h after CLP were determined by ELISA. *P<0.05 compared with peritoneal lavage from WT mice pretreated with Sema3A-Fc (FIG. 7G).
Total peritoneal cells were harvested from the peritoneal cavities of naïve WT or Plxna4^−/− mice with two 10 ml cold sterile PBS wash. […] The remaining cells were thoroughly washed with PBS and counted in a hemocytometer. Cytospins were prepared and stained with Diff-Quik solutions, and the number of peritoneal macrophages was determined. […]

B1: Sema6A: human Sema6A-Fc (1146-S6, R&D); chimeric protein of human IgG1 Fc fragment fused to Sema6A (protein)
chain: GFPEDSEPISISHGNYTKQYPVFVGHKPGRNTTQRHRLDIQMIMIMNGTLYIAARDHIYTVDIDTSHTEEIYCSKKLTWKSRQADVDTCRMKGKHKDECHNFIKVLLKKNDDALFVCGTNAFNPSCRNYKMDTLEPFGDEFSGMARCPYDAKHANVALFADGKLYSATVTDFLAIDAVIYRSLGESPTLRTVKHDSKWLKEPYFVQAVDYGDYIYFFFREIAVEYNTMGKVVFPRVAQVCKNDMGGSQRVLEKQWTSFLKARLNCSVPGDSHFYFNILQAVTDVIRINGRDVVLATFSTPYNSIPGSAVCAYDMLDIASVFTGRFKEQKSPDSTWTPVPDERVPKPRPGCCAGSSSLERYATSNEFPDDTLNFIKTHPLMDEAVPSIFNRPWFLRTMVRYRLTKIAVDTAAGPYQNHTVVFLGSEKGIILKFLARIGNSGFLNDSLFLEEMSVYNSEKCSYDGVEDKRIMGMQLDRASSSLYVAFSTCVIKVPLGRCERHGKCKKTCIASRDPYCGWIKEGGACSHLSPNSRLTFEQDIERGNTDGLGDCHNSFVALNGHSSSLLPSTTTSDSTAQEGYESRGGMLDWKHLLDSPDSTDPLGAVSSHNHQDKKGVIRESYLKGHDQLVPVT
modifications: left off: a dimerising Fc or GST
notes: human Sema6A-Fc (1146-S6, R&D); chimeric protein of human IgG1 Fc fragment fused to Sema6A
TNF-α and IL-6 production: Neither Sema3A nor Sema6A alone induced
